Measurements as given in article PMC6053351.

Columns and labels:
[1] = biological target: RBBP4, full-length, wild type (UniProt Q09028); experiment: ITC; AEBP2 ZF1–3 titrated into RBBP4; one-site binding model, Origin 7
[2] = biological target: RBBP4 Glu126Ala/Asn128Ala/Glu179Ala (UniProt Q09028); experiment: as above
RBBP4 Glu126Ala/Asn128Ala/Glu179Ala, sequence (Q09028 whole entry E126A/N128A/E179A): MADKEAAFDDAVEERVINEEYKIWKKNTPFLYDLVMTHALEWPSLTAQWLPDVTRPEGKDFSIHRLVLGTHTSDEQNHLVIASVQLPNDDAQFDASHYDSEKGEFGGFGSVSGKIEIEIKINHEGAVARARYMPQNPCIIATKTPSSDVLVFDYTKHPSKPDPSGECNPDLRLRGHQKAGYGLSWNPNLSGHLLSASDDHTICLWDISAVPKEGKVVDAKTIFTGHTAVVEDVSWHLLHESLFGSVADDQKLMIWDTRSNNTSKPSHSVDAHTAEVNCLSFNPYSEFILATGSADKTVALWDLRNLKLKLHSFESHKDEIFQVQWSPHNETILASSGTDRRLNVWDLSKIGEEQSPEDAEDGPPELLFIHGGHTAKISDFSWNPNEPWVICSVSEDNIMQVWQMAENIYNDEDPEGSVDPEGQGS

RBBP4, full-length, wild type, sequence (Q09028 whole entry): as the sequence (Q09028 whole entry E126A/N128A/E179A) above, with A126E, A128N, A179E counted along it

Kd [1]: 10.1 µM
Kd [2]: 16 µM
Substance: AEBP2 ZF1–3 (three zinc fingers, residues Asn258–Gln357) (domain or fragment)
